The target of the experiment is voltage-dependent anion-selective channel 1 (VDAC1), purified from rat liver mitochondria (rat) (UniProt Q9Z2L0). Briefly: MST; VDAC1 (138 nM) or MAVS (105 nM) fluorescently labeled and kept constant, tested protein at different concentrations; 20mM Tris-HCl, 200mM NaCl, pH 8; 30 min at 37°C in the dark; Monolith NT.115, LED 20%, IR laser 80%.

Turning to “SARS-CoV-2 small envelope E-protein, purified (from UniProt P0DTC4 1-75) (natural protein)”, the C50 (half maximal binding) amounted to 1100 nM.

The values above are taken from article PMC11550248.
